Laboratory results from patent US20160168251A1 (MorphoSys, published 2016).

T1: human NPRB on HEK293 cells, without added ligand (human, UniProt P20594 23-1047)
T1 construct: whole, on cells; also called HEK NPRB cells; natriuretic peptide receptor B
T1 sequence (looked up): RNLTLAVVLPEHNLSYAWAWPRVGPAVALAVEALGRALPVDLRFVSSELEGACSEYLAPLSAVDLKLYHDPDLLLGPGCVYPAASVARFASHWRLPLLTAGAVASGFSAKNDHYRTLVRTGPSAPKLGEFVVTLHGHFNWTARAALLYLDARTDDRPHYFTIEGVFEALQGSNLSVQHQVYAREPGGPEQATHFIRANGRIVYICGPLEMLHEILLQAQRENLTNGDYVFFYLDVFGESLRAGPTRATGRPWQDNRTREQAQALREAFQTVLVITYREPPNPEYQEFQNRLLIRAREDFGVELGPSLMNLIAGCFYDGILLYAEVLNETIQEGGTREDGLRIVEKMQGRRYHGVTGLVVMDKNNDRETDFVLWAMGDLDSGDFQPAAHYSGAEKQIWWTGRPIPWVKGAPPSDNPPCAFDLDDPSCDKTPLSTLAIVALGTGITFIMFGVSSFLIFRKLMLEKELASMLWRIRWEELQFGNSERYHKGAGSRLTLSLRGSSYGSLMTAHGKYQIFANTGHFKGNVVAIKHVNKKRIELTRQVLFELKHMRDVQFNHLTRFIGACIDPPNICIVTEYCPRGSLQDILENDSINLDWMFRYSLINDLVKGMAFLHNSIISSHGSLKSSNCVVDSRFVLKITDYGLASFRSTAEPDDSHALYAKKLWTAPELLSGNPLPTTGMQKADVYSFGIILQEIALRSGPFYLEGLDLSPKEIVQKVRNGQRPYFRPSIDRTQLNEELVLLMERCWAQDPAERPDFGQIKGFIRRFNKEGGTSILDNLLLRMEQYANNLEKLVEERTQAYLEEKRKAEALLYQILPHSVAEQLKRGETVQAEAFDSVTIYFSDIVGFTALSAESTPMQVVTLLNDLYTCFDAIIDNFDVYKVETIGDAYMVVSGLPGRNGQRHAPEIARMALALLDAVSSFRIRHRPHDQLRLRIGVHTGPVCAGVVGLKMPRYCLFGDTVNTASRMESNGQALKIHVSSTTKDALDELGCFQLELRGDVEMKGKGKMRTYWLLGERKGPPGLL

T2: human NPRA on HEK293 cells bound to ANP (human, UniProt P01160 124-151)
T2 construct: mature; Receptor-ligand complex on cells; also called HEK NPRA cells loaded with ANP; ANP-NPRA complex
T2 sequence: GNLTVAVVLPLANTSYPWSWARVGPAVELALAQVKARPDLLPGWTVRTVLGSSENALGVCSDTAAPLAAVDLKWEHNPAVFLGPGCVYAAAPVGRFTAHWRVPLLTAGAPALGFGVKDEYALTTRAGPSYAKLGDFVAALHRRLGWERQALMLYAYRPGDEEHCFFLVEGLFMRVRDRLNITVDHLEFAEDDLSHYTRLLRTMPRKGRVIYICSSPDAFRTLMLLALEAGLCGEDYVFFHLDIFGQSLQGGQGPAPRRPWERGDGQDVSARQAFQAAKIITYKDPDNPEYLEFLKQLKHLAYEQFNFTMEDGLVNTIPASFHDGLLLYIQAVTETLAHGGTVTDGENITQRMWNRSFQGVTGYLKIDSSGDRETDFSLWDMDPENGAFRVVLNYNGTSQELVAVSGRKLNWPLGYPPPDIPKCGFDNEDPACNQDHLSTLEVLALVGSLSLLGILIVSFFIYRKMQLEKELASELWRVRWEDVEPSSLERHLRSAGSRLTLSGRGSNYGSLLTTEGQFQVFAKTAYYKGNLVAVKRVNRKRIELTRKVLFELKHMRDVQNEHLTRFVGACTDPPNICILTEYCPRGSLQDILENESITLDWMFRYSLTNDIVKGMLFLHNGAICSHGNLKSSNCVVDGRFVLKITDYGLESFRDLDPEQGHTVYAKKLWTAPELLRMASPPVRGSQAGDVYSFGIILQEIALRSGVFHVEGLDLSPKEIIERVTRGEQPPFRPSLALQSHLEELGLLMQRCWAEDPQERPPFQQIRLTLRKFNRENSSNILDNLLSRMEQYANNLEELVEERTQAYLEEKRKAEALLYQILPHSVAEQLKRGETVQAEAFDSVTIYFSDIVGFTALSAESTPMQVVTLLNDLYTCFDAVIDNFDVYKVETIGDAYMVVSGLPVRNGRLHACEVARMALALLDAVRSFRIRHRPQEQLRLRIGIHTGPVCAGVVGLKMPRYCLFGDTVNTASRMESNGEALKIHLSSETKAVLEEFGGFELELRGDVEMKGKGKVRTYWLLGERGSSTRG
T2 sequence (peptide): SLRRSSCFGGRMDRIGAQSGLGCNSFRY


Columns and labels:
[1] = biological target: T1, human NPRB on HEK293 cells, without …; experiment: FACS, HEK NPRB cells without ligand
Protocol: (§1) HEK NPRA cells are detached with Accutase (PAA Laboratories GmbH, Cat. No. L11-007, Austria), harvested by centrifugation (900 rpm, 4 minutes) and resuspended in FACS buffer (PBS/3% FCS/0.02% NaN3) to a final concentration of 10⁶ cells/ml. 100 μl of the cell suspension is transferred to each well of a 96 round bottom plate (TC Microwell 96U, Nunc). […] Cells are washed in 150 μl of FACS buffer, pelleted and resuspended in 50 μl of the solution containing the primary antibody comprising a BEL extract of Fabs, a diluted BEL extract or purified antibody diluted in FACS buffer and incubated on ice for 30 min. Cells are washed again in FACS buffer and resuspended in 50 μl of FACS buffer containing the secondary antibody (R-Phycoerythrin-conjugated Affipure F(ab′)₂ Fragment Goat Anti-Human IgG, Dianova) and incubated on ice for 45 min. Cells are washed twice with FACS buffer and resuspended in 200 μl of FACS buffer for analysis in the FACS Array (BD Biosciences).

[2] = biological target: T3, human NPRB on HEK293 cells in the presence of CNP (human, UniProt P20594 23-1047; P23582 105-126); experiment: FACS, HEK NPRB cells with 100 nM CNP
T3 construct: whole, on cells;mature; also called HEK NPRB cells + 100 nM CNP
T3 sequence (P23582 105-126 limits assumed, chain 2 of 2, one chain of several): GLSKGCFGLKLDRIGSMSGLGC
Protocol: as §1

[3] = biological target: T2, human NPRA on HEK293 cells bound to ANP; experiment: KinExA whole cell binding, HEK NPRA cells with 1 nM ANP, against SPR on NPRA-Fc
[4] = biological target: canine NPRA on HEK cells bound to ANP (canine, UniProt A0A8I3MHU3 32-1060); experiment: KinExA whole cell binding (Kd,app), HEK cells with canine NPRA, ANP bound
Sequence of canine NPRA on HEK cells bound to ANP (A0A8I3MHU3 entry or part of it): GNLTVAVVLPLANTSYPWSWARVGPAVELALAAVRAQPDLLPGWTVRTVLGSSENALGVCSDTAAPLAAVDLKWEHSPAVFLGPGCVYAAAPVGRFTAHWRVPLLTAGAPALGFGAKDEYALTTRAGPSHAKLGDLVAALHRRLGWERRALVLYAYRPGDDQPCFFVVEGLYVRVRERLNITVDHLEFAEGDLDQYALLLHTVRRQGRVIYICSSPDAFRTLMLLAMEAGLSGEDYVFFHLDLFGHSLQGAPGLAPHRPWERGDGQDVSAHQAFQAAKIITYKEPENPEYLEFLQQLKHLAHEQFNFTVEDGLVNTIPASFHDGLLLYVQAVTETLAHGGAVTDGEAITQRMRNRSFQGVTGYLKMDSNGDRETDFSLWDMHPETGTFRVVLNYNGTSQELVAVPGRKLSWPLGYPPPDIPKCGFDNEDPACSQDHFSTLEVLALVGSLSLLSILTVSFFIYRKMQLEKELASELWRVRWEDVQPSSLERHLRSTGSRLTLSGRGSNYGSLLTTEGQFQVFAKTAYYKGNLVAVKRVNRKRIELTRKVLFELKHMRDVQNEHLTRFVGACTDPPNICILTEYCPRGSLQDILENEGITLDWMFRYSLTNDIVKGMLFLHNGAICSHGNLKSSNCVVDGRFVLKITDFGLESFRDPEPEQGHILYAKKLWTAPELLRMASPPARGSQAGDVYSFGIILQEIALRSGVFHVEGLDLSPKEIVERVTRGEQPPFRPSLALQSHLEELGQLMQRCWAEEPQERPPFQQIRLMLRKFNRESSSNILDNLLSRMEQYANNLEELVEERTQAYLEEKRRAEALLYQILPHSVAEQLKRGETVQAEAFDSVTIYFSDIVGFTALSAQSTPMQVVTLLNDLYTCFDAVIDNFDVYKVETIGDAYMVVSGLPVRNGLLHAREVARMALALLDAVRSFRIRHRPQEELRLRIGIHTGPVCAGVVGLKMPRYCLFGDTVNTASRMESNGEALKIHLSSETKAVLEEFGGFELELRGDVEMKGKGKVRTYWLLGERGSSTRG

| Binder | binding result [1] | binding result [2] | fold, apparent Kd on cells (KinExA) over Kd by surface plasmon resonance on NPRA-Fc [3] [fold] | Kd [4] [pM] |
| --- | --- | --- | --- | --- |
| 5592 IgG4_Pro (antibody, V domains shown) VH: QVQLQQSGPGLVKPSQTLSLTCAISGDSVSSRSASWSWIRQSPGRGLEWLGRTYYRSHWYYEYAQSVKSRITINPDTSKNQFSLQLNSVTPEDTAVYYCARMDVPSFRYFDVWGQGTLVTVSS VL: not shown | no binding (tested: 20 nM) | no binding (tested: 20 nM) |  |  |
| 5591 IgG4_Pro (antibody, V domains shown) VH: QVQLQQSGPGLVKPSQTLSLTCAISGDSVSSRSASWSWIRQSPGRGLEWLGRTYYRSHWYYEYAQSVKSRITINPDTSKNQFSLQLNSVTPEDTAVYYCARMDVPSFRYFDVWGQGTLVTVSS VL: not shown | no binding (tested: 20 nM) | no binding (tested: 20 nM) | ~20 | 96 |
